Measurements from patent US20140141093A1 (DOMANTIS, published 2014).
One block for each binder: values may come before it.

Legend:
human VEGF = target: T1, human VEGF (human, UniProt P15692-4 27-191, biotinylated in selections and on the SA sensorchip); experiment: RBA assay (footnote †); value read as that of the Fc fusion
T1 construct: also called hVEGF; VEGFA

TNFR1-FC fusion = target: T2, TNFR1-FC fusion (human, UniProt P19438 30-211, limits assumed); experiment: human TNFR1 receptor binding assay: inhibition of TNF-alpha (10 ng/ml) binding to bead-captured TNFR1-Fc, four replicates
T2 construct: not shown: Fc part (captured by goat anti-human IgG)
T2 sequence (looked up): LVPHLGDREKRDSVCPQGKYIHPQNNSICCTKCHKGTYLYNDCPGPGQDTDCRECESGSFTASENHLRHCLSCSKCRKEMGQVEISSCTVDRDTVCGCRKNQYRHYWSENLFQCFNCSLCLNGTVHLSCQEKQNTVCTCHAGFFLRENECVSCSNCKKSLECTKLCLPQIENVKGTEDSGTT

T1 sequence (P15692 other isoform, or with tags, fused parts or gaps limits assumed): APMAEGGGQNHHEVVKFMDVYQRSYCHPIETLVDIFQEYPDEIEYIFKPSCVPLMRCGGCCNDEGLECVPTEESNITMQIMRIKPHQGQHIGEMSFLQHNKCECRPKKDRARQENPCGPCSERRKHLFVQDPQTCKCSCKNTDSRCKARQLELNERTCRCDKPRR

- Activity (nM), RBA assay (human VEGF): 0.913 nM
B1: DOM15-10 Fc fusion (Fc fusion)
chain: DIQMTQSPSSLSASVGDRVTITCRASQWIGPELSWYQQKPGKAPKLLIYHTSILQSGVPSRFSGSGSGTDFTLTISSLQPEDFATYYCQQYMFQPRTFGQGTKVEIRR
notes: also called DMS1546; not shown: short peptide linker and human IgG1 Fc

- IC50 (read off the curve) (TNFR1-FC fusion): ~0.08 nM
B2: DOM1h-131-206 (other)
VH: EVQLLESGGGLVQPGGSLRLSCAASGFTFAHETMVWVRQAPGKGLEWVSHIPPDGQDPFYADSVKGRFTISRDNSKNTLYLQMNSLRAEDTAVYHCALLPKRGPWFDYWGQGTLVTVSS
notes: Human VH dAb against TNFR1; also called GSK1995057A
